The source of these data is a protein production outcome set (Wang et al. 2014).

This data set in a line: label from the status in PepcDB records.
Turning to “MPARQSFTDLKNLVLCDIGNTRIHFAQNYQLFSSAKEDLKRLGIQKEIFYISVNEENEKALLNCYPNAKNIAGFFHLETDYVGLGIDRQMACLAVNNGVVVDAGSAITIDLIKEGKHLGGCILPGLAQYIHAYKKSAKILEQPFKALDSLEVLPKSTRDAVNYGMVLSVIACIQHLAKNQKIYLCGGDAKYLSAFLPHSVCKERLVFDGMEIALKKAGILECK”, the protein production entry is on record as “not failed”.

Take “MQEELAWETDGLLPLERQLHEAARQNNVGRMQELIGRRVNTRARNHVGRVALHWAAGAGHEQAVRLLLEHEAAVDEEDAVGALTEARLCFGMNALLLSAWFGHLRILQILVNSGAKIHCESKDGLTLLHCAAQKGHVPVLAFIMEDLEDVALDHVDKLGRTAFHRAAEHGQLDALDFLVGSGCDHNVKDKEGNTALHLAAGRGHMAVLQRLVDIGLDLEEQNAEGLTALHSAAGGSHPDCVQLLLRAGSTVNALTQKNLSCLHYAALSGSEDVSRVLIHAGGCANVVDHQGASPLHLAVRHNFPALVRLLINSDSDVNAVDNRQQTPLHLAAEHAWQDIADMLLIAGVDLNLRDKQGKTALAVAVRSNHVSLVDMIIKADRFYRWEKDHPSDPSGKSLSFKQDHRQETQQLRSVLWRLASRYLQPREWKKLAYSWEFTEAHVDAIEQQWTGTRSYQEHGHRMLLIWLHGVATAGENPSKALFEGLVAIGRRDLAGWSTMARSQLTATSASRVQMILVPQPPE”: the protein production result is on record as “failed”. The same measure for “MQHNELKTPYFMINEDKLIANLEKAKQLKEISGVKLVLALKCFSTWGVFDIIKPYLDGTTSSGPFEVKLGYETFGGETHAYSVGYSEDDVREVADICDKMIFNSQSQLAAYRHIVEGKASIGLRLNPGVSYAGQDLANPARKFSRLGVQADHIKPEVFEGIDGVMFHMNCENKDVDAFIGLLDAISEQFGEYLNKLDWVSMGGGVFFTWPGYDIEKLGLALKAFSEKHGVQMYLEPGEAIITKTTDLVVTVVDIVENVKKTAIVDSATEAHRLDTLIYNEPASILEASDNGEHEYVIGSCSCLAGDQFCVANFDQPLEIGQRLHILDSAGYTMVKLNWFNGLRMPSVYCERSSGEIQKLNEFDYSDFKRSLSQWSVK”: “failed”; for “VNEIVVNPNATLDWQLALRQAAGKTDLARDMLQMLLDFLPEVRNKVEEQLVGENPEGLVDLIHKLHGSCGYSGVPRMKNLCQLIEQQLRSGTKEEDLEPELLELLDEMDNVAREASKILG”: “not failed”; for “EAGYEAGTEYLNLDEQPATILDAEHLGIETKEPITIIERLRTANHKPVVYCLDKIAKTYLTCTDYQQSSGSMLEAIKASTNHQIMHAEMDLEAISYEPHISEVLNASPHEGLMLLKVVHYDEKHQPILYSLNYIKSSLVKFTITKSE”: “not failed”. As for “MLTIDTASRTFHCKTWVTGQTQGKAVIARERISFWGGFDPQTGRIVDPYSSLRGRDISDCVLILLSSKGSSGTSGMLSLATRAGHAPAAMIQVEMDPVTVMGCLVNNIPLLQATGFDPFEQIQDGDLVRIDGENGTITLAPGQALEHHHHHH”, the entry is “not failed”. The same measure for “MIGHRPLLAALERGHCASYTFVMKRRNFFRFSALGLLALAGGGLYARRSSASAYYSGPISDHFDGVRFFNPGGTPPGNFMGLLKWRFNGERATWPETYPSPFPFAKPEARIDGRDMRVTFVGHASFLIQTAGLNILVDPVWSQRTSPLSFAGPKRVNPPGIRFEDLPPIDLVLVTHNHYDHLDMETLKRLHVAHKPLFITPLGNDAVIRTGVEAARIKVGDWGDVVETGSVKIHFEPCHHWSARGLNDRSMALWAAFVIETPGGKIYHIGDTGFHEGLNYGAARKKHGEFRLANLPFGAYEPRWFMKGQHQNPAEAVEGMRLCGAAHVCGHHWGTVQLTDEAVDAPLAALKAALTEQGVEESRFRPMRPGEVFDVPSA”: “failed”. For “MAYAHVFASLTISTISLRRFLPRLHRNHSVKPNSRIICNLKLNYSAGKFREMGLSRSVELDQFITSEEEEGEAEEIGEGFFEAIEELERMTREPSDILEEMNHRLSSRELQLMLVYFAQEGRDSWCTLEVFEWLKKENRVDEEIMELMVSIMCGWVKKLIEDECNAHQVFDLLIEMDCVGLKPGFSMMDKVIALYCEMGKKESAVLFVKEVLRRRDGFGYSVVGGGGSEGRKGGPVGYLAWKFMVDGDYRKAVDMVMELRLSGLKPEAYSYLIAMTAIVKELNSLGKTLRELKRFARAGFVAEIDDHDRVLIEKYQSETLSRGLQLATWAVEEGQENDSIIGVVHERLLAMYICAGRGPEAEKQLWKMKLAGREPEADLHDIVMAICASQKEVNAVSRLLTRVEFMGSQRKKKTLSWLLRGYVKGGHFEEAAETLVSMIDSGLHPEYIDRVAVMQGMTRKIQRPRDVEAYMSLCKRLFDAGLPKTNLNDLRTSVSSYVFLKLSESEGESKAGGRNKNHRGKIVMELEDPTMADSTIKLTVKFGGKSIPLSVSPDCTVKDLKSQLQPITNVLPRGQKLIFKGKVLVETSTLKQSDVGSGAKLMLMASQGLHQGEGPILKEASIRPISRTVVSDKVDQRKPSVLVDKNRTDRWKATGVIALAQANLKEIPEEVWDCGSGVRVLDISENFIKEVPAKISSFGSMQKLFLQGNGLSDESIQWEGIASLKRLMLLSISHNNLTVLPSAMGSLTSLRQLDVTNNKLTSLPNELGLLTQLEILKANNNRITSLPESIGNCSFLMEVDLSANIISELPETFTKLRNLKTLELNNTGLKTLPSALFKMCLQLSTLGLHNTEITVEFLRQFEGYDDFDERRRTKHQKQLDFRVVGSGQFDEGADKSW”, the protein production entry is given as “failed”. As for “MPGEPGISTRPFSHCERGTTTRCGEGDAHVTVVISHLLVPATVSTVVTSSSFDRLQALLQRPAVASISPALREALARAWQELPPAQTDNVPWALLGDTLDALALLAADEATLIAALLFDLPALRGAVTDLPWQPAERRVAVEGLLDGLDAADQVWALHAGREAGRNSEGLRRLLLSIIHDLRVVPILLARQLSRMRVADRLSKEQRHALAQLTRDIHAPLANRLGIWQVKWELEDLAFRHLEPDTYRRIAREVDETRVARERYLEAVKRTLSAALAQQGLRADVSGRPKHIYSIWRKMQKKRLSFDQLYDIRAVRVMVDDVAACYAALGAVHSLWAPVPSEFDDYIARPKANDYRSLHTAVVGPEGRTIEIQIRTHEMHAQAELGVAAHWKYKEGGKGGEKAFDRKILWMRQLLEQVQEGEHGELAGALDAELIEDRVYALTPKGEVIDLPQGATPLDFAYHVHTMVGHRCRGARVNDRIVPLTYRLRSGDRVEIMTAKEADPRRDWLLASNGFLASGRSRDKVRAWFHKLDRARNVQAGKDLLDRELKRLGLQHADLSVATRKFHADTIDDLYIQVALGDTGPNQVSRALLEAERAASQPAVPAPPRPTARREGLGKSKFTVEGVGNLLVQLARCCQPVAGEPIAGYLTRGRGITVHRTDCAALARLAAAHPQRVLPVEWGKAGTGYEVDVQVRAVDRRWLLKDITNLIAQEDAHVLEINSDNVRDTGRAQLRLRLKVSDYDQLSGLLGKLDALPGVSEVRRLG”, the entry is “failed”; as for “MSKFTIHTIETAPERVKETLRTVKKDNGGYIPNLIGLLANAPTALETYRTVGEINRRNSLTPTEREVVQITAAVTNGCAFCVAGHTAFSIKQIQMAPDLLEALRNATPIDDDPKLDTLAKFTIAVINTKGRVGDEAFADFLEVGYTPENALDVVLGVSLASLCNYANNMADTPINPELQQYVK”, “not failed”; as for “MGISPDAASKLYTVKFQPDPIDKKGWSVIDFNNCCTQDGGWYLNMGWGVESLIDNNPGTQWLCRWDVKEPLPYYFVFDMGKEYTLFRFGFANPVAPAAHVWAGTSKAGYVEASIDNENWVKLKDWTSPKIGEPNVNMDVPATQARYIRFVITDTYPTYDGLRVSLGEVYAWGLEHHHHHH”, “not failed”. The same measure for “MYTECAYITVINNKARLFFMNMKTSFIAAAVALATVYSFSVSAVQKDITVTANIDSTLELLQADGSSLPSTMKLDFMPGKGLVHKSLQTRLYSNDQTKSVNVKLLNAPQLINVLDPTKTIDMEVTLGGRSLTTTNSVLEAKTLFPDGKTGDASALLNLDIGQKAGAALQNLPAGEYSGLVSLVISQAVTAGLEHHHHHH”: “failed”; for “MGHHHHHHSHMDSHDLQRFLSDFRDLMSWINGIRGLVSSDELAKDVTGAEALLERHQEHRTEIDARAGTFQAFEQFGQQLLAHGHYASPEIKQKLDILDQERADLEKAWVQRRMMLDQCLELQLFHRDCEQAENWMAAREAFLNTEDKGDSLDSVEALIKKHEDFDKAINVQEEKIAALQAFADQLIAAGHYAKGDISSRRNEVLDRWRRLKAQMIEKR”: “not failed”.

For “MQEAEAIYQSGMKILNGSTRKNQKREAYRYLQKAAGMNHTKALERVSYALLFGDYLTQNIQAAKEMFEKLTEEGSPKGQTGLGFLYASGLGVNSSQAKALVYYTFGALGGNLIAHMVLGYRYWAGIGVLQSCESALTHYRLVANHVASDISLTGGSVVQRIRLPDEVENPGMNSGMLEEDLIQYYQFLAEKGDVQAQVGLGQLHLHGGRGVEQNHQRAFDYFNLAANAGNSHAMAFLGKMYSEGSDIVPQSNETALHYFKKAADMGNPVGQSGLGMAYLYGRGVQVNYDLALKYFQKAAEQGWVDGQLQLGSMYYNGIGVKRDYKQALKYFNLASQGGHILAFYNLAQMHASGTGVMRSCHTAVELFKNVCERGRWSERLMTAYNSYKDDDYNAAVVQYLLLAEQGYEVAQSNAAFILDQREATIVGENETYPRALLHWNRAASQGYTVARIKLGDYHFYGFGTDVDYETAFIHYRLASEQQHSAQAMFNLGYMHEKGLGIKQDIHLAKRFYDMAAEASPDAQVPVFLALCKLGVVYFLQYIREANIRDLFTQLDMDQLLGPEWDLYLMTIIALLLGTVIAYRQRQHQDIPVPRPPGPRPAPPQQEGPPEQQPPQ”, the protein production entry was “failed”.

Take “MRCPGCGAAIQFDDPKKPGYIPREVFEKRLEEGKEILCQRCFRMKHYGKLEPVEFDWDFKNQLKSYLGGFDVVVWVIDIFDFEGTYREDIAEILKGKRVIYVINKIDLLPRAVTVKEIKEWVKKRIKTKNTDDIRIVSAEKNFGLTSLVKYLSRLTDKALVVGVTNVGKSSLLNKICTHENTISPFPGTTLGILKRKVKEANLYLYDTPGIMTSDRILDLLDPECQKRVLPREELSRKTFKPDNGRTIFMGGLCRFDIHFETEKNPIFLLFSSKEVTFHETRRERADELMRNRLGDLLIPPCSKTKFENFKWKRETFTLKEGEELAVAGLGWMSVRRGPFTVEVTVPDSVKLVVREALVNPKRLEHHHHHH”: the protein production entry is given as “not failed”. As for “MVETLGAIAPVFLIILVGFLLRRWKVLSDGFWLPAEKLTYFITFPALLAANLAGADLRGVAWAPVAAVSVGGIFLIAALMLAARSLLARRLAIGDPAFTSVFQGAIRPNTYIGLALATVLFGPFGVTLMALCIAIVVPLVNVLAVACMVRFGHGQSASLSAMARGIATNPLILACLVGIAMNIGGLGLPPVLGPALTILGSAALPIGLLAVGAGLSGVGLRRAAPALLVSSAAKLVLLPGLTLIGALALGMDAPTTALCVLYAALPCSQSSYVLARQMGGDATLMATAITVQTLLSGLSIPVFVLALV”, the entry is “failed”.

For “MYEIPWSKPVNINMLDGRCRTVVGPLDAMHCLQSEWPVRDGAYYGCAIRACNAALKRRKRPEDARAAFIAALREAFLTVVPMQEEGHGPRPLE”, the protein production entry is recorded as “not failed”. Turning to “MSVDQMAHYQRKLAYEMDSWDLYIALNEGQAITIVDGRSEAAFADEHIPGALNLPHKEICFNSTQMLDKSKLYVCYCDGIGCNASTKTALNLLTLGFDVRELIGGLDWWKRDGYATDGKKAQLGTKINCGC”, the protein production entry was “failed”. For “MSQFPNRAALWLNKLAPDAPLMSGLCPSVQVTDGQINGESVRFIAVVPDANNHYPRAAGGEVGLLEGWTLAKVVNETIAADADRPVKRPIVAVIDVPSQAYGRREEAFGIHQALAGAAGAYAKARLAGHPVIGLIVGKAMSGAFLAHGYQANRLIAFNDSGVLVHAMGKASAARITLRTVEALEKLAATIPPMAYDVSNYATLGLLSALLDISNPDAPDEGDLSLVSRTLRDAIADARTDTSLKCRLGAENRRSSQLVRDRMRASW”, the protein production result is reported as “failed”. The same measure for “SKSSEKRQAVDTAVDGVFIRSLKVNCKVTSRFAHYVVTSQVVNTANEAREVAFDLEIPKTAFISDFAVTADGNAFIGDIKDKVTA”: “failed”.
